# Data as given in patent publication EP4471048A1, “PEPTIDE INHIBITORS OF INTERLEUKIN-23 RECEPTOR” (Zealand Pharma A/S, priority 2023, dated 2024).
# Read-outs that look alike come from different tables or passages of the source. *1 amine or outer side, *2 acyl side, *3 side chain or, on linkers, in order; H or OH if unused. Bridges are numbered along the chain shown (N, C = ends). [ ]: non-standard residue; d: D form. The star is where a group is joined. K(G) = Lys(Gly): lysine with a glycine on the side-chain amine, (2S)-2-amino-6-[(2-aminoacetyl)amino]hexanoic acid, O=C(CN[*:3])NCCCC[C@H](N[*:1])C(=O)[*:2]; γDab = iso-Dab: Dab joined to preceding residue by its side-chain amine, O=C([C@H](CCN[*:1])N[*:3])[*:2]; 2‑Amino‑6‑carboxyhexanoyl = 2-aminoheptanedioic acid residue; NH(2-(3-pyridyl)ethyl) = c1cncc(CCN*)c1; Phe(4-Me) = Cc1ccc(C[C@H](N)C(=O)O)cc1; 2Nal = N[C@@H](Cc1ccc2ccccc2c1)C(=O)O; AEF = NCCOc1ccc(C[C@H](N)C(=O)O)cc1; 3Pal = N[C@@H](Cc1cccnc1)C(=O)O; β3hE = N[C@@H](CCC(=O)O)CC(=O)O; αMeL = CC(C)C[C@](C)(N)C(=O)O; dDab = NCC[C@@H](N)C(=O)O; Dab = NCC[C@H](N)C(=O)O; βAla = NCCC(=O)O
# T1: Nluc-IL23R fusion protein (human, UniProt Q5VWK5 22-629)
# T1 construct: range 22-629; Stably expressed in HEK293 cells; also called hIL-23R; human IL-23R; not shown: Nanoluc protein (N1371, Promega) at the N-terminus, after a secretion signal
# T1 sequence (looked up): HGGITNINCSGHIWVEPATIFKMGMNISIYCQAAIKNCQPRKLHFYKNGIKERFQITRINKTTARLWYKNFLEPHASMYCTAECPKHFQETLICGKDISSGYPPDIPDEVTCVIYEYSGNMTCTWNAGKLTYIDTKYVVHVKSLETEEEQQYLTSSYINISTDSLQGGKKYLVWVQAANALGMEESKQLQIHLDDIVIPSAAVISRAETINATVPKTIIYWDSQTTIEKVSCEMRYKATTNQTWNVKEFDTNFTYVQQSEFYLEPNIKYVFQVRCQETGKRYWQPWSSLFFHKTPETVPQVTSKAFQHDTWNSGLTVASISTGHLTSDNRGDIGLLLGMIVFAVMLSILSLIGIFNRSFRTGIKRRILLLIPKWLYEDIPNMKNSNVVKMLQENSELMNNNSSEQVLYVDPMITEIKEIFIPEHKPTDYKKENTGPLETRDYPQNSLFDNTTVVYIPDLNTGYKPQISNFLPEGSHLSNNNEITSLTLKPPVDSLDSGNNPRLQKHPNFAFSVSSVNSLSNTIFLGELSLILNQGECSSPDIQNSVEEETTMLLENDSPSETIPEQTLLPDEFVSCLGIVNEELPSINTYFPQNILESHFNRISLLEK
# T2: human IL-23R endogenously expressed on DB cells (human, UniProt Q5VWK5 24-629)
# T2 sequence (looked up): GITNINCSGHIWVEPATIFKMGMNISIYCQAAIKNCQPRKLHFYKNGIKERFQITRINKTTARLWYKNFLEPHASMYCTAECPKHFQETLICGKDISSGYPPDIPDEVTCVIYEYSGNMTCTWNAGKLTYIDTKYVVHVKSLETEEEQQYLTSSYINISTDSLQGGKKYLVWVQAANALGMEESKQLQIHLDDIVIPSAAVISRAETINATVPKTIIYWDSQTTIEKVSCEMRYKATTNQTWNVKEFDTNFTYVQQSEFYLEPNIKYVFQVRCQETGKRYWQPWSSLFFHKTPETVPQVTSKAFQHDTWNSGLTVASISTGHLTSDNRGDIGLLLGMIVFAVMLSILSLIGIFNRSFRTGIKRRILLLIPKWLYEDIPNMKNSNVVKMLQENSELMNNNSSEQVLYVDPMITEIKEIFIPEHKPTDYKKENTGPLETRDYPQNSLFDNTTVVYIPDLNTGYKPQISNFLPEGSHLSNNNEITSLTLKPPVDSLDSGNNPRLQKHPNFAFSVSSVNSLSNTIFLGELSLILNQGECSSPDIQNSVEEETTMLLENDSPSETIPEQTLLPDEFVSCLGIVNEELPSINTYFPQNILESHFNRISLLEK
# How the values were obtained:
# [1] = target: T1, Nluc-IL23R fusion protein; experiment: BRET competition vs TAMRA-labelled peptide, Nluc-IL23R membranes
# [2] = target: T1, Nluc-IL23R fusion protein; experiment: as above; remark: listed apart in the source
# [3] = target: T2, human IL-23R endogenously expressed on …; experiment: cell-based or functional assay
Binder,% displacement [1],% displacement [2],hIL-23 (pSTAT3) antagonist % inhibition [3],hIL-23 (pSTAT3) antagonist IC50 [3],IC50 [1]
"[dDab]TVWQD[AEF][2Nal][αMeL][2‑Amino‑6‑carboxyhexanoyl][Dab][3Pal]-NH2 (lactam 1-10, N-6) [Compound 9]",103%,,,,
"[K(G)]WQE[AEF][2Nal][αMeL]E[Dab][3Pal]-NHMe (lactam 1-8, N-4; SMILES CNC(=O)[C@H](Cc1cccnc1)NC(=O)[C@H](CCN)NC(=O)[C@@H]1CCC(=O)NCC(=O)NCCCC[C@@H]2NC(=O)CC[C@H](NC(=O)[C@H](CCC(N)=O)NC(=O)[C@H](Cc3c[nH]c4ccccc34)NC2=O)C(=O)N[C@@H](Cc2ccc(OCCN)cc2)C(=O)N[C@@H](Cc2ccc3ccccc3c2)C(=O)N[C@@](C)(CC(C)C)C(=O)N1) [Compound 46]",,104%,102%,25 nM,
"K[βAla]WQE[AEF][2Nal][αMeL]E[Dab][3Pal]-NHMe (lactam 1-9, N-5; SMILES CNC(=O)[C@H](Cc1cccnc1)NC(=O)[C@H](CCN)NC(=O)[C@@H]1CCC(=O)NCCCC[C@@H]2NC(=O)CC[C@H](NC(=O)[C@H](CCC(N)=O)NC(=O)[C@H](Cc3c[nH]c4ccccc34)NC(=O)CCNC2=O)C(=O)N[C@@H](Cc2ccc(OCCN)cc2)C(=O)N[C@@H](Cc2ccc3ccccc3c2)C(=O)N[C@@](C)(CC(C)C)C(=O)N1) [Compound 45]",,100%,100%,0.058 nM,
"[dDab]TWQD[AEF][2Nal][αMeL][2‑Amino‑6‑carboxyhexanoyl][Dab][3Pal]-NH2 (lactam 1-9, N-5) [Compound 15]",105%,,,,4.9 nM
"KGWQE[AEF][2Nal][αMeL]E[Dab][3Pal]-NHMe (lactam 1-9, N-5; SMILES CNC(=O)[C@H](Cc1cccnc1)NC(=O)[C@H](CCN)NC(=O)[C@@H]1CCC(=O)NCCCC[C@@H]2NC(=O)CC[C@H](NC(=O)[C@H](CCC(N)=O)NC(=O)[C@H](Cc3c[nH]c4ccccc34)NC(=O)CNC2=O)C(=O)N[C@@H](Cc2ccc(OCCN)cc2)C(=O)N[C@@H](Cc2ccc3ccccc3c2)C(=O)N[C@@](C)(CC(C)C)C(=O)N1) [Compound 44]",,100%,100%,15 nM,
"KTVWQE[Phe(4-Me)][2Nal][αMeL][γDab](6‑(3-pyridyl)hexanoyl) (lactam 1-C, N-6; also: iso-Dab joined to preceding residue via its side-chain amine) [Compound 25]",91%,,,,840 nM

# Further lines, results first:
% displacement [1],% displacement [2],hIL-23 (pSTAT3) antagonist % inhibition [3],hIL-23 (pSTAT3) antagonist IC50 [3],IC50 [1],Binder
97%,,,,14 nM,"EWQEXXXXXX ([iso-Glu](1c)^‡(6c)^†WQE(6c)[Y(2-aminoethoxy)][2-Nal][2-Me-Leu][Dab](1c)[Dab][3-(3-Pyridyl)-Ala]-[NHMe]; (1c) [2,11] lactam; (6c) [2,7] lactam; ^† alpha-amine in bridge; ^‡ alpha-carboxylic acid in bridge) [Compound 107]"
99%,,,,,"KIVWQE[AEF][2Nal][αMeL][β3hE]-{NH(2-(3-pyridyl)ethyl)} (lactam 1-10, N-6) [Compound 65]"
99%,,,,,"KIVWQE[AEF][2Nal][αMeL][β3hE][3Pal]-NHMe (lactam 1-10, N-6, The partner of the (1c) bridge is printed as (cyclo1)) [Compound 61]"
99%,,,,0.076 nM,"EIVWQEXXXXXX (E(1c)(6c)^†IVWQE(6c)[Y(2-aminoethoxy)][2-Nal][2-Me-Leu][K(Me)](1c)[Dab][3-(3-Pyridyl)-Ala]-[NHMe]; (1c) [2,11] lactam; (6c) [2,7] lactam; ^† alpha-amine in bridge) [Compound 74]"
